Test results reported in patent US20070065425A1 (LABORATOIRE FRANCAIS DU FRACTIONNEMENT ET DES …, published 2007).

T1: Factor VIII fragment 379-546Mut (R484A, Y487A, R489A, P492A), tagged (UniProt P00451 398-565, labeled in vitro with L-(35S) methionine)
T1 construct: Produced in rabbit reticulocyte lysate
T1 sequence: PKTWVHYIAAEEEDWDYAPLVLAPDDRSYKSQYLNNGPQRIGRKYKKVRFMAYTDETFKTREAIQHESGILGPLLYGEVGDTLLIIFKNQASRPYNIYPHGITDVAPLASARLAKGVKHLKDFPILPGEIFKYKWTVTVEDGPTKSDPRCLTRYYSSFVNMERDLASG

B1: 30D1 monoclonal anti-idiotypic antibody (antibody, mouse IgG1, V domains shown)
VH: EVQLQQSGPELVKPGASMKISCKASGYSFTDYTMNWVKQSHGKNLEWIGLINPYNVISSYNQKFKGKATLTVDKSSSTAYMELLSLTSEDSAVYYCARKGYGSSMFAYWGQGTLVTVSA
VL: DIVMTQSHKFMSTSVGGRVSITCKASQDVTTAVAWYQQKPGQSPKLLIYSASYRYTGVPDRFTGSGSGTDFTFTFSSVQAEDLAVYYCQQHYSIPWTFGGGTKLEIKR
notes: Tested as hybridoma supernatant and Protein G purified (SPR); also called 30D1 anti-Id; 30DA1
B2: BOIIB2 antibody (antibody, human IgG4, kappa, V domains shown)
VH: QVQLQESGPGLVKPSETLSLTCTVSGDSISDYYWSWIRQPPGKGLEWIGYFFYSGGSNYNPSLKSRVTMSVDTSKNQFSLKLGSVTAADTAVYYCARSQLRYYLDVWGQGTTVTVSS
VL: EIVLTQSPGTLSLSPGERATLSCRASQSVDSNYLAWYQQKPGQAPRVVIYGASNRATGIPDRFSGSGSGTEFTLTISRLDPEDFAVYYCQQYGSFFGQGTRLEIKR
notes: Human monoclonal IgG4 from a haemophilia A patient; also called anti-A2 antibody; FVIII anti-domain A2 BOIIB2 human antibody

What was measured:
BOIIB2 antibody = biological target: B2; test: SPR (BIAcore), BOIIB2 immobilized on CM5, 30D1 as analyte
Description: The kinetics of fixation of the 30D1 anti-idiotypic antibody to the BOIIB2 inhibitor antibody was assessed by the method <<Surface plasmon resonance Biacore>> using the Pharmacia Biosensor BIAcore (Pharmacia Biosensor AB, Uppsala, Sweden). The BOIIB2 antibodies were immobilized on an activated surface of a probe CM5. The 30D1 anti-idiotypic antibodies were infused in several concentrations of immobilized BOIIB2 on the surface of the probe.

[1] = biological target: T1, Factor VIII fragment 379-546Mut (R484A, …); test: immunoprecipitation of 35S-labelled fragment by BOIIB2 on Protein A Sepharose
Description: The immunoprecipitation of the transcribed genes is carried out as follows. Sample dilutions containing the specific antibodies are mixed with 40 up of Protein A Sepharose (Pharmacia) in 500 up of a suitable buffer, and the mixture is gently stirred for 1 hour at 4° C. The non-fixed antibodies are eliminated by means of a succession of centrifugations and washings. The complex antibody-Protein A Sepharose is resuspended in 300 up of buffer supplemented with 3 up of polypeptides of Factor VIII labeled in vitro with methionin L-(³⁵S), in order to incubate at 4° C. for 2 hours. The complexes antigens/antibodies are eluted from the beads by boiling for 3 minutes in 30 up of denaturating buffer and the radioactivity is counted. A second aliquot is analyzed by SDS-PAGE and visualized by autoradiography.
The fragments were immunoprecipitated by the human BOIIB2 antibody bound to Protein-A Sepharose. After washing, the complex was eluted and the radioactivity measured (in CPM) by scintillation and charged on SDS-PAGE, followed by an autoradiography. […] The anti-c-myc 9E10 antibody and the human plasma were used as positive and negative controls, respectively.

Kd (BOIIB2 antibody) [nM]	koff (BOIIB2 antibody) [s⁻¹]	kon (BOIIB2 antibody) [M⁻¹ s⁻¹]	binding result [1]	Binder
≤ 0.17	≤ 1e-05	60000	–	B1
–	–	–	no binding	B2
